Measured values as given in the supplement of paper PMC12764529.
± gives the half width of the 95% confidence interval.

assay: folding stability dG unfold from trypsin proteolysis; higher = more stable
Outline: (§1)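 How resistant each design was to proteolysis was captured as K50, inferred by Bayesian fitting of sequencing counts. Unfolding free energy was then derived relative to a sequence-predicted unfolded-state K50 and a shared folded-state K50, per protease or combined. Digestion used trypsin and chymotrypsin at 11 threefold-diluted concentrations plus a no-protease condition, on mini-proteins under 80 residues without cysteine in a PA-tagged cDNA display construct. Designs were kept only when AlphaFold2 dimer inter-PAE was above 15.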

Sequence	folding stability dG unfold [kcal/mol]
SAGGGNVTKTSTTTLPNGTTLVTYTGTSPSSAGSKNLSLLSLPFDVTVTKVEFDPNTGKVTIETVIPPSAGG [r13_413_JUSTAS]	0.516 ± 0.059
SAGKEVIVITVEELEKLLKALKPGEKVKIVVINKDGKKVTFTAEVKDGKVEIKEAEKDIKPGDKIFIEKSAG [r5_85_TrROS_Hall]	1.85 ± 0.17
SAGGSAGGSWIPLPDGYLIKITEVVPGGIRIKFPDMGNEITIPPGMPIKIKIIPVKDPDGEPISAGGSAGGS [r20_105_TrROS]	1.03 ± 0.056
SAGGSKLPPGQKVIEIEWKIPPGLKPGQPFKISDEFINKLAERHGNIHITNIQFTNSYMKWSIIIDSAGGSA [r2_383_TrROS]	1.83 ± 0.063
SAGGSAGGSAGPTLTLTLPPGKLSPEFLEALAAQGYTLGEVTVTEVPEDDTVVVTVTTAPSAGGSAGGSAGG [r11_345_JUSTAS]	1.4 ± 0.069
SPPVSTTTPVPDPENGVVVATVTLTTDPTTGEKTLILKSPEGKTKTVTLSPDETFPVEGLPKGLTATSSVSA [r9_1150_JUSTAS]	-0.942 ± 0.47
SAGQTIRIDEIYPHPDGFLIKIRYPDGKVHTFPIKPNMPITVDGDTITITFPGGPITIPLENMEIEILPSAG [r5_999_TrROS]	3.28 ± 0.069
SAGGSFPIADVKEVKVEAYPETNTAKVPFTFPNGVTAVADAYLDPVTGRPVLVVRTPDGRLVVLPLSAGGSA [r2_490_TrMRF]	1.43 ± 0.032
SAGGSAGGSAGGSMELKLKVVEKTETRSATPGEDEPLPGNSSVTYEGNTLTTTTLVLVPLSAGGSAGGSAGG [r7_506_JUSTAS]	-0.728 ± 0.28
SAGGMIRITEGPNYYKITFWMPPNNPSLLEEIADFFGNPKVDTEPIPEDGMTRHEITLPLDDPEAIKSAGGS [r16_479_TrROS]	0.765 ± 0.11
SAGDEALLERIRARAEAEAKAAGPDPTPLDYRVEVEPVEIDEETGTVKVRVTITAPDREVEREVTVPLVSAG [r5_53_JUSTAS]	0.315 ± 0.051
SAGGSAGGSAGMTLTLEFTDPEVAIPLAEKLAEELGLELVEIEEREEGERPVYLVTLKVPSAGGSAGGSAGG [r11_232_JUSTAS]	1.63 ± 0.056
SAGGEEKVITKEETITVPPDAGTITISSNEVIKDPNSSYTYYVKESKTVSRDPNSNVYTITLKIKVEKSAGG [r13_574_JUSTAS]	-0.0992 ± 0.12
SGGMVNATVTVTLPLPDLPPVTLTVTITEEATPEEAEARKKALAAELEAELRAAAADAALPAPALTSALLSA [r9_626_JUSTAS]	1.85 ± 0.032
SAGGMEVEITIVVPPGASLEEIEELARKLAEELGLSVENIKVTVIVVEPEEEEEEEEEKKLKEEEEKSAGGS [r16_240_TrROS_Hall]	1.93 ± 0.17
SAGGSAGGSAGGGIYEVDENGNPLPPRPYLVLKIGYEVGYLPDGGAGLSLNIEIYPVYDASAGGSAGGSAGG [r7_572_TrMRF]	3.18 ± 0.2
SAGGSAGGMYKVTITVTDPATGKTVATETLTLESEEEAKEYVEAVKKELPSSLTVSATITKVPESAGGSAGG [r6_690_JUSTAS]	4.77 ± 0.46
SAGGSAGGSMTKTITTKTEEEAESEARRLLKEEGVPEGVEPTPITLESVDPEKGLYTFTVELESAGGSAGGS [r12_999_JUSTAS]	0.2 ± 0.062
SAGGSAGGSAGEPIKGIIRVYNPETGEVTDIELEFKTLEEALAFAASLPPTVARVEIVFASAGGSAGGSAGG [r11_25_TrMRF]	1.6 ± 0.059
SAGGSAGGSAGSKTIEVVIPVKPNELTPEQAENLIKPFFPDAKIEVTPEGNYLVVKVEVSSAGGSAGGSAGG [r11_7_TrMRF]	0.475 ± 0.11
MEAEELATTLAAEALAPLPRPFEIDPENNEVRVPGGGELAELPIRVVLVDEDGEIVEERIVPVRIRAEEPGS [r1_318_TrMRF]	-0.362 ± 0.14

assay: folding stability dG unfold (combined trypsin and chymotrypsin); higher = more stable
Outline: as §1

Sequence	folding stability dG unfold [kcal/mol]
SAGGSAGGSAGGMNPIVIKKTYPVKSGSFTVTLPEGVTPVSFEKDPNSDTITIEVLVEPSAGGSAGGSAGGS [r10_906_JUSTAS]	0.0999 ± 0.3
SMEIVFKGKNYYVPVKIDLDNPKITIETYPDKRNKVFKPLSKETAEKIAKAVEIEVAEKIAKAIAEGKPPSA [r9_368_TrMRF]	-0.246 ± 0.54
SAGGAEIKITSIEYNPETKTITAKVEITVDGKKFTFTITIKLKAAPAPPTVTVTDKDIPGKTVTLTKTSAGG [r13_615_TrROS_Hall]	2.1 ± 0.24
SAPIRPGQDLKIEPEIRRYPNGSMSYTYRLEFPNGPTVHVRHTMQRDPEHGKPRHKWDIHLSPKALEAFSAG [r14_842_TrROS]	1.41 ± 0.07
SDPNKPWTAEEIAKIIEEKILEEFDVEEIIPKELKVFPKEGTVKVKMLVKYKGEPGKYFELEVEISPEELSA [r9_1002_TrMRF]	2.52 ± 0.081
SAGGSAGGSAGGSRMRLEITVRDENGLLVRLEVEFEEKDGELEMKVRAEVFPLPEEEEESAGGSAGGSAGGS [r4_168_TrROS_Hall]	2.44 ± 0.1
SAGGSAMKKTTATFYVRPDSLTVEIELGEKTKKLTFDPSVSIEEVKASLPDYVDEVKVKPASPSLSSAGGSA [r15_1058_JUSTAS]	0.242 ± 0.14
SAGGSKPILKIKITIYRIDKNGKLIKKIELTLPPLTEEQLKKLLEALKKLPKDVKIVEVKIELVEPSAGGSA [r2_75_TrROS_Hall]	4.16 ± 0.31
SAGGSMSAEELREKIAADPRISLDDVTVTVTRTPDSVTVTVTLKDPNDPVYVEAEERARALFAELASAGGSA [r2_3_JUSTAS]	0.16 ± 0.049
SAGGSAGMMKVTTTPVSADTVRVTVTVPGGPFTVTVTQNGVPLLTRTVPADATLTITLPPNATVVGSAGGSA [r15_581_JUSTAS]	1.94 ± 0.14
SSVTIPFKITDPNTTIAEIAERVRELLPESLGELSVTVTFSDGTTLNVTPGENLSKYYSPDDELTITVDAPS [r1_56_JUSTAS]	1.27 ± 0.11
SAGGSAGGSAGGTIEELVKAGKTVKVRVRLKNGETLEVEIRPDEVVEFPNIEEIEVEEVSAGGSAGGSAGGS [r10_700_TrROS_Hall]	1.51 ± 0.05
SAGGSAGGSAMKLKVPTKDGKVYEVTVVDYDPENEKVVVKNPDTDELYTFSLEDFKKILEANSAGGSAGGSA [r18_161_TrMRF]	3.36 ± 0.12
SAGGSAGGSGPKPRLIKLTFLLEPGKVEEFAQALRDAGFEIVSVEVEPLPDGGERATVTVRIDSAGGSAGGS [r12_905_TrMRF]	3.56 ± 0.062
SMNITVTYDPETDTVTIEIDDEEIDPETLRELLDAIPPNVKRVIIHVDHPETARTVEELAKETGLPVEIASA [r9_919_TrMRF]	3.97 ± 0.12
SKPDPVKIEIEQERNPNGQPQHTIKIQDKGKDRKFPIHNMSIDEFDPDDPYIKIRSPGNGQSHTIPPDDLSA [r9_1186_TrROS]	0.832 ± 0.098
SVNPATQVVTVTREVTYPVPPSQGPISEEEAREAVEAELAARGWTLREVRVEYEGDTVTVTAVAERPAAASA [r9_1134_JUSTAS]	1.11 ± 0.038
SAGGSAKDEKVVVIVRREVRLRSRPKVDLGEGNPRVEFESSVEVRVPFLVLPEDDPVARELRELEGSAGGSA [r15_470_TrMRF]	-0.26 ± 0.1
SAGGKKEKIVEIKLLDMSYDPENKTVTFKFLVKLENGEEKVIELKISAEDFEKMSLEDILKAVKDFFESAGG [r13_512_TrMRF]	4.72 ± 0.15
SAGPTVRQETFGEKYRIEVEVSPDGTVKVKIVNENGEVTELEGKVEPGKPVVLPFPLDGHVVNVVVLPASAG [r5_237_TrMRF]	2.52 ± 0.13
SAGGSAGGSGEVLLLSANSFSFSEGDGLLVVVNLPNGGYVVLPFKKGDLNLNLPSSGYSEFFGSAGGSAGGS [r12_746_TrMRF]	1.59 ± 0.058

Sequence	folding stability dG unfold [kcal/mol]
SAGGGNVTKTSTTTLPNGTTLVTYTGTSPSSAGSKNLSLLSLPFDVTVTKVEFDPNTGKVTIETVIPPSAGG [r13_413_JUSTAS]	0.978 ± 0.13
SAGKEVIVITVEELEKLLKALKPGEKVKIVVINKDGKKVTFTAEVKDGKVEIKEAEKDIKPGDKIFIEKSAG [r5_85_TrROS_Hall]	3.09 ± 0.46
SAGGSAGGSWIPLPDGYLIKITEVVPGGIRIKFPDMGNEITIPPGMPIKIKIIPVKDPDGEPISAGGSAGGS [r20_105_TrROS]	0.9 ± 0.14
SAGGSKLPPGQKVIEIEWKIPPGLKPGQPFKISDEFINKLAERHGNIHITNIQFTNSYMKWSIIIDSAGGSA [r2_383_TrROS]	2.11 ± 0.067
SAGGSAGGSAGPTLTLTLPPGKLSPEFLEALAAQGYTLGEVTVTEVPEDDTVVVTVTTAPSAGGSAGGSAGG [r11_345_JUSTAS]	1.1 ± 0.069
SPPVSTTTPVPDPENGVVVATVTLTTDPTTGEKTLILKSPEGKTKTVTLSPDETFPVEGLPKGLTATSSVSA [r9_1150_JUSTAS]	0.0862 ± 0.14
SAGQTIRIDEIYPHPDGFLIKIRYPDGKVHTFPIKPNMPITVDGDTITITFPGGPITIPLENMEIEILPSAG [r5_999_TrROS]	3.24 ± 0.064
SAGGSFPIADVKEVKVEAYPETNTAKVPFTFPNGVTAVADAYLDPVTGRPVLVVRTPDGRLVVLPLSAGGSA [r2_490_TrMRF]	1.3 ± 0.094
SAGGSAGGSAGGSMELKLKVVEKTETRSATPGEDEPLPGNSSVTYEGNTLTTTTLVLVPLSAGGSAGGSAGG [r7_506_JUSTAS]	-0.72 ± 0.34
SAGGMIRITEGPNYYKITFWMPPNNPSLLEEIADFFGNPKVDTEPIPEDGMTRHEITLPLDDPEAIKSAGGS [r16_479_TrROS]	1.19 ± 0.27
SAGDEALLERIRARAEAEAKAAGPDPTPLDYRVEVEPVEIDEETGTVKVRVTITAPDREVEREVTVPLVSAG [r5_53_JUSTAS]	0.0838 ± 0.088
SAGGSAGGSAGMTLTLEFTDPEVAIPLAEKLAEELGLELVEIEEREEGERPVYLVTLKVPSAGGSAGGSAGG [r11_232_JUSTAS]	1.61 ± 0.043
SAGGEEKVITKEETITVPPDAGTITISSNEVIKDPNSSYTYYVKESKTVSRDPNSNVYTITLKIKVEKSAGG [r13_574_JUSTAS]	0.647 ± 0.33
SGGMVNATVTVTLPLPDLPPVTLTVTITEEATPEEAEARKKALAAELEAELRAAAADAALPAPALTSALLSA [r9_626_JUSTAS]	1.24 ± 0.29
SAGGMEVEITIVVPPGASLEEIEELARKLAEELGLSVENIKVTVIVVEPEEEEEEEEEKKLKEEEEKSAGGS [r16_240_TrROS_Hall]	2.57 ± 0.55
SAGGSAGGSAGGGIYEVDENGNPLPPRPYLVLKIGYEVGYLPDGGAGLSLNIEIYPVYDASAGGSAGGSAGG [r7_572_TrMRF]	3.79 ± 0.23
SAGGSAGGMYKVTITVTDPATGKTVATETLTLESEEEAKEYVEAVKKELPSSLTVSATITKVPESAGGSAGG [r6_690_JUSTAS]	4.58 ± 0.12
SAGGSAGGSMTKTITTKTEEEAESEARRLLKEEGVPEGVEPTPITLESVDPEKGLYTFTVELESAGGSAGGS [r12_999_JUSTAS]	0.379 ± 0.076
SAGGSAGGSAGEPIKGIIRVYNPETGEVTDIELEFKTLEEALAFAASLPPTVARVEIVFASAGGSAGGSAGG [r11_25_TrMRF]	2.66 ± 0.095
SAGGSAGGSAGSKTIEVVIPVKPNELTPEQAENLIKPFFPDAKIEVTPEGNYLVVKVEVSSAGGSAGGSAGG [r11_7_TrMRF]	0.366 ± 0.18
MEAEELATTLAAEALAPLPRPFEIDPENNEVRVPGGGELAELPIRVVLVDEDGEIVEERIVPVRIRAEEPGS [r1_318_TrMRF]	0.542 ± 0.11
